± gives the uncertainty stated by the source.
Test: amyloid nucleation score (Sup35N fusion, yeast selection) (log enrichment); library NNK1; higher = more nucleation; inactive = no reads after selection
How it was run: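 DiMSum was used to calculate nucleation scores as log enrichment of output over input reads, centred on the mode score of non-aggregating sequences. Sequences with fewer than 100 input reads were not scored. Input and output came from Illumina sequencing of plasmid inserts in psi-negative yeast expressing peptides of 20 random codons fused to Sup35N, induced 24 hours with 100 μM copper sulfate and then grown 7 days at 30°C on medium lacking adenine and uracil.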

Substance	amyloid nucleation score
VVNGTMFINPCYVQGRCKEM	4.63 ± 0.067
FHHCFIQTSSDAVSSGLDFE	0.644 ± 0.78
SDHRTW	0.743 ± 0.42
YLCPVRDFNGLYGLVFM	-0.756 ± 1.7
NYYLECWYSCMGNTETSSKG	0.212 ± 0.53
AYSDVYQLFYLKYMFCNWLL	2.89 ± 0.26
CIWSSNLFSRSSTSDWRLDT	-0.109 ± 0.29
SILLWDLKANF	0.346 ± 0.29
MDKCIVSGVVESIFTGGAVI	-0.361 ± 0.75
NQTSLAILSRSSQGHGTKVY	0.623 ± 0.95
CNYWRNRRWF	1.48 ± 0.33
NGFNKSRAQWFGSVSCSPEG	0.174 ± 1.5
DLRFCNASYVLWISDFAHAV	-0.08 ± 0.41
RTNSSSVCSILKGLSQ	-0.535 ± 1.1
AYPLKTFIFYHGLMIWFNAM	0.827 ± 0.84
LGESTGIFFYGEIRPYLNGS	-0.148 ± 0.64
VCRTPSLRHHTFDVYFWSDV	-0.105 ± 1.4
GEFESSNVRSACSGGYFRAA	-0.186 ± 0.88
VNFYDRAYRIWCCRNASE	3.34 ± 0.088
QFYHLYCHKIYCFRGEFRRR	1.83 ± 0.46
VLSFVLDYCNAEV	0.653 ± 0.45
AAAFSSGGKLFHAGCWRRMM	-0.681 ± 1.6
FPGSRDPGVNRSWSYNSIDT	1.87 ± 0.14
AQTWGESKTLPENLANYDAY	0.241 ± 0.56
NLYVNN	-0.623 ± 1
CFVHLLGIIYLSLDRNYCRE	0.272 ± 0.57

— the supplement of paper PMC12042874
